Test results reported in patent publication US20220153853A1 (JIANGSU HENGRUI MEDICINE, published 2022).
Where two headings read alike, the source gives them in different places.

B1: hu1803-9 (antibody, human IgG4 S228P, kappa, F234A L235A, V domains shown)
VH: EVQLVQSGAEVKKPGASVKVSCKASGYTFTDYWIEWVRQAPGQGLEWMGEILPGSTYTNYNEKFKGRVTMTRDTSTSTVYMELSSLRSEDTAVYYCARGLSTLMAVDYFDYWGQGTTVTVSS
VL: DIQMTQSPSSLSASVGDRVTITCRASQDISNYLNWYQQKPGKAVKLLIYYSSTLHSGVPSRFSGSGSGTDYTLTISSLQPEDFATYYCQQTNIFPWTFGGGTKVEIKR
notes: IgG4-AA / kappa humanized antibody; also called hu1803_VH.1 + hu1803_VL.1B; GCGR monoclonal antibody
B2: hu1810-12 (antibody, human IgG4 S228P, kappa, F234A L235A, V domains shown)
VH: QVQLVQSGAEVKKPGSSVKVSCKASGGTFSNYAISWVKQAPGQGLEWIGEIYPTSGNTYYNEKFKGKATLTADRSTSTMYMELSSLRSEDTAVYYCASGVITTVVSTDYFDYWGQGTLVTVSS
VL: DIQMTQSPSSLSASVGDRVTITCRASLDISNYLNWYQLKPGKAVKLLIYYTSTLHSGVSSRFSGSGSGTEYTLTISSLQPEDFATYYCQQGNMVPYTFGGGTKVEIKR
notes: IgG4-AA / kappa humanized antibody; also called hu1810_VH.1C + hu1810_VL.1B
B3: ch1805 (antibody, human IgG4 S228P, kappa, F234A L235A, V domains shown)
VH: EVQLQQSGPELVKPGASVKIPCKTSGYTFTDYNMDWVKQSHGRSLEWIGSIDPDNGGTIYNQKFKGKATLTVDKSSSTAYMELRSLTSEDTAVYYCTRDYYGSSSWFAYWGQGTLVTVSA
VL: DVVMTQSPATLSVTPGDRVSLSCRASQSISDYLHWYQQKSHESPRLLIKYASQSISGIPSRFSGSGSGSDFTLSINSVEPEDVGVYYCQNGHSFPYTFGGGTKLEIKR
notes: IgG4-AA / kappa chimeric antibody; also called chimeric antibody of clone 1805
B4: ch1808 (antibody, human IgG4 S228P, kappa, F234A L235A, V domains shown)
VH: QVQLQQSGAELARPGASVKLSCKASGDTFTTNGISWVKQRIGQGLEWIGEIYPRSGNTYYNENFKGKATLTADKSSTTAYMELRRLTSEDSAVYFCARSITSVIGADYFDYWGQGTTLTVSS
VL: DIQMTQTTSSLSASLGDRVTISCRASQDISNYLNWYQKKPDGTVKLLIYYSSTLHSGVPSRFSGSGSGTDYSLTISNLEQEDIATYFCQQGNTFPWTFGGGTKLEIKR
notes: IgG4-AA / kappa chimeric antibody

Tests used:
[1] = biological target: T1, human GCGR (full-length glucagon receptor of 477 amino acids) (human, UniProt P47871 26-477); assay: cell-based or functional assay
[2] = biological target: T1, human GCGR (full-length glucagon …); assay: cell-based or functional assay; remark: listed apart in the source
[3] = biological target: T1, human GCGR (full-length glucagon …); assay: competitive cell ELISA on GCGR-overexpressing CHO cells, biotin-labeled against unlabeled antibody; competitor hu1803-9
Description: (§1) The GCGR epitopes bound by GCGR antibodies were classified by ELISA assay, in which the competitive binding of the biotin-labeled antibodies with different concentrations of the standard antibody to GCGR-overexpressing CHO cells was detected. The method for preparing the cell plate was the same as that of Test Example 1. The following specific procedures are as follows: The antibody was labelled according to the biotin labeling kit instructions (Dojindo
(§2) Molecular Technologies, Inc. LK03). The unlabeled test antibody was diluted to a range of concentrations with sample dilution solution in a 96-well cell plate, 50 μl/well, and incubated at 37° C. for 2 hours. After the incubation was finished, the plate was washed 3 times with PBST, 50 μl/well of biotin-labeled antibody diluted with sample dilution solution was added, at a concentration of 0.1 μg/ml, incubated at 37° C. for 2 hours, the plate was washed 3 times with PBST, and HRP-labeled goat-anti-human secondary antibody (JacksoW ImmuWo Research, Cat Wo. 109-035-003) was added, and incubated at 37° C. for 1 hour. The plate was washed 3 times with PBST, 50 μl/well of TMB chromogenic substrate (KPL, Cat No. 52-00-03) was added, incubated at room temperature for 10 min, and 50 μl/well of 1M H₂SO₄ was added to stop the reaction. The absorbance value was read by a microplate reader (Thermo scientific Multiskan MK3) at a wavelength of 450 nm, and the data was analyzed with GraphPad Prism 5.

[4] = biological target: T1, human GCGR (full-length glucagon …); assay: competitive cell ELISA on GCGR-overexpressing CHO cells, biotin-labeled against unlabeled antibody; competitor ch1808
Description: as §1, §2

Mouse GCGR [5] = biological target: T2, Mouse GCGR (mouse, UniProt Q61606 27-485); assay: cell-based or functional assay
Cynomolgus monkey GCGR [6] = biological target: Cynomolgus monkey GCGR (cynomolgus monkey); assay: cell-based or functional assay
[7] = biological target: T1, human GCGR (full-length glucagon …); assay: competitive cell ELISA on GCGR-overexpressing CHO cells, biotin-labeled against unlabeled antibody; competitor hu1810-12
Description: as §1, §2

Mouse GCGR [8] = biological target: T2, Mouse GCGR; assay: cell ELISA on fixed CHO cells overexpressing GCGR
Description: (§3) The expression levels of GCGR were detected after two weeks of pressure screening, After the GCGR-overexpressing cells were fixed to the bottom of 96-well plate, the antibodies were added and the signal strength was used to determine the binding activity of the antibody to GCGR overexpressing CHO cells. The binding abilities of the antibody to the three species of GCGRs were detected with the same binding assay. As an example, the binding of the GCGR antibodies to human GCGR was detected by an assay specifically described as follows:
(§4) The cells were seeded in a 96-well plate at a density of 0.9-1.0×10⁶/ml, 100 μl/well and cultured overnight. The supernatant was discarded, the plate was washed three times with PBS, 100 μl/well of cell immune fixed solution (Beyotime, Cat No. P0098) was added and fixed for an hour at room temperature, and washed four times with PBS. The liquid was discarded, 200 μl/well blocking solution (5% skim milk (BD skim milk, Cat Wo. 232100) diluted with PBS) was added, and incubated in an incubator at 37° C. for 3 hours for blocking. After the blocking was finished, the blocking solution was discarded, the plate was washed 3 times with PBST buffer (PBS comprising 0.05% tweenW-20, pH7.4), 50 μl/well of various concentrations of each of the test antibodies (antibodies purified from hybridoma, chimeric antibodies or humanized antibodies) diluted with sample dilution solution were added, and incubated in an incubator at 37° C. for 2 hours. After the incubation was finished, the plate was washed 3 times with PBST, 50 μl/well of HRP-labeled goat anti-mouse secondary antibody (JacksoW ImmuWo Research, Cat No. 115-035-003) or goat anti-human secondary antibody (JacksoW ImmuWo Research, Cat Wo. 109-035-003) diluted with sample dilution solution was added, and incubated at 37° C. for 1 hour. The plate was washed 3 times with PBST, 50 μl/well of TMB chromogenic substrate (KPL, Cat Wo. 52-00-03) was added, incubated at room temperature for 10 min, and 50 μl/well of 1M H₂SO4 was added to stop the reaction. The absorbance value was read by a microplate reader (Thermo scientific Multiskan MK3) at a wavelength of 450 nm, and the data was analyzed with GraphPad Prism 5. The binding of GCGR chimeric antibodies to GCGR-overepressing CHO cells was calculated as EC50 value.

Cynomolgus monkey GCGR [9] = biological target: T3, Cynomolgus monkey GCGR (cynomolgus monkey); assay: cell ELISA on fixed CHO cells overexpressing GCGR
T3 construct: whole, on cells; also called cynomolgus GCGR
Description: as §3, §4

[10] = biological target: T1, human GCGR (full-length glucagon …); assay: cell ELISA on fixed CHO cells overexpressing GCGR
Description: as §3, §4

Mouse GCGR [11] = biological target: T2, Mouse GCGR; assay: cell-based or functional assay; remark: listed apart in the source
[12] = biological target: T1, human GCGR (full-length glucagon …); assay: cell-based or functional assay; remark: listed apart in the source

T1 sequence (P47871 26-477 limits assumed): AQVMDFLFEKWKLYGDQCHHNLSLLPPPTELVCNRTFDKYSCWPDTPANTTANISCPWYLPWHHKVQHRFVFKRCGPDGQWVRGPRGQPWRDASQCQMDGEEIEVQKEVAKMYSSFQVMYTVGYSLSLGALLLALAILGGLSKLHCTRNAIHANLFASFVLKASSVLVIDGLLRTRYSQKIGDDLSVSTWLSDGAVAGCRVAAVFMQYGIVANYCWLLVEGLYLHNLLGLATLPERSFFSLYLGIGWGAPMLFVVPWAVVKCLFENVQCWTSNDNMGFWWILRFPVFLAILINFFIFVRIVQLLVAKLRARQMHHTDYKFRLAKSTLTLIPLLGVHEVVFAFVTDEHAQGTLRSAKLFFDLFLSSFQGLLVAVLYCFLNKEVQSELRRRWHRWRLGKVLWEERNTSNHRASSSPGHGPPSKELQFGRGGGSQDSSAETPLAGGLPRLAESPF
T2 sequence (Q61606 27-485): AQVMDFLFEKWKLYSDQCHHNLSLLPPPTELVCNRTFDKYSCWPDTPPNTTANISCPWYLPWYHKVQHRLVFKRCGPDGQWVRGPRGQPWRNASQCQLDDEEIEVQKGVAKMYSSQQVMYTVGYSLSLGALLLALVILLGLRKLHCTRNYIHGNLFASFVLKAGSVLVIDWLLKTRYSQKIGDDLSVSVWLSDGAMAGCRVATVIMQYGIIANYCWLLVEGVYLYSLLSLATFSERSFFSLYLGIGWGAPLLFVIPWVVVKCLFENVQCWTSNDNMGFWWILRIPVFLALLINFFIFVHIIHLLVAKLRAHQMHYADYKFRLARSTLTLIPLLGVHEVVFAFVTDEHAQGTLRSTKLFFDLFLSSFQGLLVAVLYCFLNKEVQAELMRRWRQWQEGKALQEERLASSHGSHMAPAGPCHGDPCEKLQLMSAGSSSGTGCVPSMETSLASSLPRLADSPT

Row | Binder | IC50 [1] [nM] | Imax (%) [1] [%] | IC50 [2] [nM] | Imax [2] [%] | competition efficiency IC % [3] [%] | competition efficiency IC % [4] [%] | IC50 (Mouse GCGR [5]) [nM] | Imax (%) (Mouse GCGR [5]) | IC50 (Cynomolgus monkey GCGR [6]) [nM] | Imax (%) (Cynomolgus monkey GCGR [6]) | competition efficiency IC % [7] [%] | EC50 (Mouse GCGR [8]) [nM] | EC50 (Cynomolgus monkey GCGR [9]) [nM] | EC50 [10] [nM] | IC50 (Mouse GCGR [11]) [nM] | Imax (%) (Mouse GCGR [11]) | IC50 [12] [nM] | Imax [12] [%]
1 | B1 | 54 | 100 | 78.4 | 100 | 100 | 100 | 11.2 | 100 | 220 | 100 | 100 |  |  |  |  |  |  | 
2 | B2 |  |  | 75.9 | 99.7 | 100 | 100 | 17.5 | 97 | 886 | 99 | 100 |  |  |  |  |  |  | 
3 | B3 |  |  |  |  | 100 | 100 |  |  |  |  | 100 | 0.343 | 0.358 | 0.297 | 18 | 100 | 95 | 91
4 | B4 |  |  |  |  | 46.6 | 100 |  |  |  |  | 54.3 | 1.02 | 0.536 | 0.677 | 26.6 | 100 | 105 | 98
